Assay results as given in patent US6787359B1, “Gene transfer methods” (Takara Shuzo Co., Ltd., priority 1998, dated 2004).

Tested on: mouse leukemia L1210 cells
Test: Gene transfer with PM5neo virus on coated plates, G418-resistant cells by WST-1 absorbance
Assay type: cell-based
Details: for Absorbance difference (450 nm-650 nm), G418-resistant cells: Experiment 2
Description: 50 μl of […] solution of H-271, H-296, C-274, CH-271, CH-296, ColV, human basic fibroblast growth factor (bFGF; Progen), tenascin (Gibco) or epidermal growth factor (EGF; Takara Shuzo), or 50 μl of 2% bovine serum albumin (BSA, Sigma) was added to each well of a 96-well non-treated microplate for cell culture (Falcon). The plate was allowed to stand at 4° C. overnight and then washed twice with phosphate buffered saline (PBS; Roman Kogyo). Alternatively, after the plate was treated as described above, 0.1 ml of 4 mg/ml solution of 1-ethyl-3-dimethylaminopropylcarbodiimide hydrochloride (Sigma) in sterile pure water was dispensed to each well. The reaction was allowed to proceed at 37° C. for 2 hours. The plate was washed extensively with pure water to prepare a carbodiimide-treated plate. These plates were stored at 4° C. until viral infection experiments were conducted.
10^4 mouse leukemia L1210 cells (ATCC CCL-219), which had been grown in RPMI 1640 medium (Bio Whittaker) supplemented with 10% FCS, 50 units/ml penicillin and 50 μg/ml streptomycin, and 50 μl of PM5neo virus supernatant (10^4 cfu/ml) were added to the well of the microplate. After the plate was incubated for 24 hours, the medium was changed to the same medium containing G418 (Gibco) at a final concentration of 0.75 mg/ml, and the plate was then incubated for additional 48 hours. G418-resistance cells were assessed according to the method as described in S. Kim et al. [Gene Therapy, 3:1018-1020 (1996)] with a partial modification in which color developed using Premix WST-1 reagent (Takara Shuzo) was measured as absorbance at 450 nm. […] Absorbance at 450 nm and 650 nm was then measured using a microplate reader, and the difference (450 nm-650 nm) was calculated. The value obtained using a plate coated with 2% BSA without carbodiimide treatment was defined as background.

B1: EGF: epidermal growth factor (Takara Shuzo) (protein, UniProt P01133 23-1207, looked up)
Pro-epidermal growth factor: PQHWSCPEGTLAGNGNSTCVGPAPFLIFSHGNSIFRIDTEGTNYEQLVVDAGVSVIMDFHYNEKRIYWVDLERQLLQRVFLNGSRQERVCNIEKNVSGMAINWINEEVIWSNQQEGIITVTDMKGNNSHILLSALKYPANVAVDPVERFIFWSSEVAGSLYRADLDGVGVKALLETSEKITAVSLDVLDKRLFWIQYNREGSNSLICSCDYDGGSVHISKHPTQHNLFAMSLFGDRIFYSTWKMKTIWIANKHTGKDMVRINLHSSFVPLGELKVVHPLAQPKAEDDTWEPEQKLCKLRKGNCSSTVCGQDLQSHLCMCAEGYALSRDRKYCEDVNECAFWNHGCTLGCKNTPGSYYCTCPVGFVLLPDGKRCHQLVSCPRNVSECSHDCVLTSEGPLCFCPEGSVLERDGKTCSGCSSPDNGGCSQLCVPLSPVSWECDCFPGYDLQLDEKSCAASGPQPFLLFANSQDIRHMHFDGTDYGTLLSQQMGMVYALDHDPVENKIYFAHTALKWIERANMDGSQRERLIEEGVDVPEGLAVDWIGRRFYWTDRGKSLIGRSDLNGKRSKIITKENISQPRGIAVHPMAKRLFWTDTGINPRIESSSLQGLGRLVIASSDLIWPSGITIDFLTDKLYWCDAKQSVIEMANLDGSKRRRLTQNDVGHPFAVAVFEDYVWFSDWAMPSVMRVNKRTGKDRVRLQGSMLKPSSLVVVHPLAKPGADPCLYQNGGCEHICKKRLGTAWCSCREGFMKASDGKTCLALDGHQLLAGGEVDLKNQVTPLDILSKTRVSEDNITESQHMLVAEIMVSDQDDCAPVGCSMYARCISEGEDATCQCLKGFAGDGKLCSDIDECEMGVPVCPPASSKCINTEGGYVCRCSEGYQGDGIHCLDIDECQLGEHSCGENASCTNTEGGYTCMCAGRLSEPGLICPDSTPPPHLREDDHHYSVRNSDSECPLSHDGYCLHDGVCMYIEALDKYACNCVVGYIGERCQYRDLKWWELRHAGHGQQQKVIVVAVCVVVLVMLLLLSLWGAHYYRTQKLLSKNPKNPYEESSRDVRSRRPADTEDGMSSCPQPWFVVIKEHQDLKNGGQPVAGEDGQAADGSMQPTSWRQEPQLCGMGTEQGCWIPVSSDKGSCPQVMERSFHMPSYGTQTLEGGVEKPHSLLSANPLWQQRALDPPHQMELTQ
modifications: Pro-epidermal growth factor
B1 was tested, and the “Absorbance difference (450 nm-650 nm), G418-resistant cells” value (plate treated with carbodiimide) was 0.077 ± 0.038, the “Absorbance difference (450 nm-650 nm), G418-resistant cells” value (plate untreated) was 0.030 ± 0.021 and the “Appearance of G418-resistant cells (in words)” value (carbodiimide treatment carried out) was “increased”.
